Our source for the Kd and Ka values is article PMC5216119, “An allosteric conduit facilitates dynamic multisite substrate recognition by the SCF^Cdc4 ubiquitin ligase” (Nature Communications, 2017).

One test deals with Skp1-Cdc4 complex (Saccharomyces cerevisiae, UniProt P07834+P52286). Briefly: Fluorescence polarization binding of fluorescein-labelled Ash1 peptides to Skp1-Cdc4. Further details: species or system yeast. The following applies: 10 nM fluorescein-labelled peptide, increasing recombinant Skp1-Cdc4 complex; 10 mM HEPES pH 7.5, 40 mM NaCl, 0.1 mg ml^−1 BSA, 1 mM DTT; ex 485 / em 535 nm; read-out: Kd (μM) from fluorescence polarization. The source says: Figure 6 NMR titration of IM-labelled Cdc4^WD40 with Ash1 peptides. (a) Combined ^1H and ^13C chemical shifts of Cdc4^WD40 on binding of Ash1 peptides, with pT286 peptide in red, pT290 peptide in green, pS294 peptide in yellow, and the peptide phosphorylated on all three CPDs in blue. Assigned Ile and Met residues are labelled with residue number. Chemical shifts for the two bound states in titration with pT286 and triply phosphorylated peptides are reported on the same bars with stripes or without stripes. […] (f) Fluorescence polarization of the fluorescein-labelled Ash1 peptides (circle, pT286/pT290/pS294, square, pT286/pT290, triangle, pT290/pS294, inverted triangle doubly phosphorylated CycE peptide) in the presence of increasing concentrations of the recombinant Skp1-Cdc4 complex (mP, millipolarization unit). (g) Fluorescence polarization of the fluorescein-labelled Ash1 peptides (circle, pT286/pT290/pS294, square, pT286/pT290, triangle, pT290/pS294, inverted triangle, doubly phosphorylated CycE peptide) in the presence of increasing concentrations of the SCF-I2 inhibitor.
Fluorescence polarization assays containing 0.21 μM Skp1-Cdc4 complex and 10 nM fluorescently labelled cyclin E-derived or Ash1-derived phosphopeptides in 10 mM HEPES (pH 7.5), 40 mM NaCl, 0.1 mg ml^−1 BSA and 1 mM DTT in a final volume of 23.5 μl per well were performed on an Analyst HT plate reader (Molecular Devices Corp., Sunnyvale CA). Samples were excited at 485 nm and emission was read at 535 nm (ref. [26]).
A general note: In fluorescence polarisation assays a small probe gives low polarisation when free and higher when bound to something large.

Test [1] addresses Cdc4 (Saccharomyces cerevisiae) (UniProt P07834). Particulars: cited from earlier work.
The target is the same in test [2]. The following applies: cited from earlier work. This is another data set of the same source.
Test [3] shares this target. Particulars: cited from earlier work. The source holds these as a separate data set.
Test [4] has the same target. The following applies: cited from earlier work. The source holds these as a separate data set.
Test [5] shares this target. The following applies: cited from earlier work. The source holds these as a separate data set.
Test [6] has the same target. Particulars: cited from earlier work. This is another data set of the same source.
Test [7] shares this target. The following applies: cited from earlier work. The source holds these as a separate data set.
Test [8] shares this target. Particulars: cited from earlier work. This is another data set of the same source.
Test [9] deals with Cdc4-Skp1 (Saccharomyces cerevisiae) (UniProt P07834). Description: intrinsic Trp fluorescence. The following applies: cited from earlier work.
Test [10] addresses fluorescein-labelled Ash1^18pT286/pT290/pS294 peptide (yeast). Briefly: fluorescence polarisation; 10 nM fluorescein-labelled peptide with increasing concentrations of the recombinant Skp1-Cdc4 complex; 10 mM HEPES pH 7.5, 40 mM NaCl, 0.1 mg/ml BSA, 1 mM DTT.
In test [11] the target is fluorescein-labelled Ash1^18pT286/pT290 peptide (yeast). Described as above.
Test [12] addresses fluorescein-labelled Ash1^18pT290/pS294 peptide (yeast). Described as above.
Test [13] concerns the target T1, Cdc4^WD40 (isolated WD40 domain of the yeast F-box protein Cdc4, residues 367-744), wild type (yeast, UniProt P07834 367-744).
T1 construct: Cdc4, yeast F-box protein, WD40 domain, residues 367-744; For the NMR experiments the protein was U-[15N,2H], Ile-delta1-[13CH3], Met-epsilon-[13CH3] labelled (IM-labelled); also called wt Cdc4^WD40; Cdc4 WD40 domain; source: E. coli BL21(DE3) codonPlus, purified (Ni-NTA, Ulp protease, Ni-NTA, Superdex 200)
T1 sequence (looked up): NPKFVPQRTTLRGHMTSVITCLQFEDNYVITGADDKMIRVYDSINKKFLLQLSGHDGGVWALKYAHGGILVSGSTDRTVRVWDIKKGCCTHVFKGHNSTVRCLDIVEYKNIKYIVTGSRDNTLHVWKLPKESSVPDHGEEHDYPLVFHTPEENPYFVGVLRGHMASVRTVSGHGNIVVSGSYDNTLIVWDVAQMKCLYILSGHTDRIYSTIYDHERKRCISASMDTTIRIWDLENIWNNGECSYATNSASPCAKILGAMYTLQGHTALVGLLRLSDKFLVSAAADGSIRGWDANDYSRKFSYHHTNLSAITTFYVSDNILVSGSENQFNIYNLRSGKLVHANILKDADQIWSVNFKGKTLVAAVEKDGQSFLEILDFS
Briefly: other fluorescence titration; intrinsic Trp fluorescence (excitation 298 nm, emission 366 nm); 0.5 μM Cdc4, ligand titrated; 50 mM Tris, 150 mM NaCl, 5 mM DTT, pH 7.5, 20 °C; 1:1 stoichiometry assumed. The following applies: both partners purified.

Another test addresses T2, R664Q Cdc4^WD40 (yeast, UniProt P07834 367-744, R664Q).
T2 construct: Cdc4, yeast F-box protein, WD40 domain, residues 367-744, with Arg664Gln in the allosteric pocket; also called Arg664Gln Cdc4^WD40; mutant (Arg664Gln) Cdc4^WD40; source: E. coli, purified as the wild type (Ni-NTA, Ulp protease, Ni-NTA, Superdex 200)
T2 sequence (looked up): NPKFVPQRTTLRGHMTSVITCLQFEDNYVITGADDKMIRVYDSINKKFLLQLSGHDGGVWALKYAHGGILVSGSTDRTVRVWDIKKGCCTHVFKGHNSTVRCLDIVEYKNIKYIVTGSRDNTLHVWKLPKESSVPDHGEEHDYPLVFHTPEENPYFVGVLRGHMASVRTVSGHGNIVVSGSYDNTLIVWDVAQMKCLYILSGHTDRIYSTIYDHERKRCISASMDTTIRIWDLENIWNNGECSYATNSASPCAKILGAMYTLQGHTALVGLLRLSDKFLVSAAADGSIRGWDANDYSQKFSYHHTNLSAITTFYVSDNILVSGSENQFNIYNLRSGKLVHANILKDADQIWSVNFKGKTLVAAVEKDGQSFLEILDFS
The test is described as above. The following applies: both partners purified.

Read-outs that look alike come from different tables or passages of the source. Square brackets hold non-standard residues; d marks the D form. Ends that are not written are not given here. Peptide text beside a SMILES is read from it. pT = C[C@@H](OP(=O)(O)O)[C@H](N)C(=O)O; pS = N[C@@H](COP(=O)(O)O)C(=O)O

Sequence of Cdc4 (Saccharomyces cerevisiae) (P07834 whole entry): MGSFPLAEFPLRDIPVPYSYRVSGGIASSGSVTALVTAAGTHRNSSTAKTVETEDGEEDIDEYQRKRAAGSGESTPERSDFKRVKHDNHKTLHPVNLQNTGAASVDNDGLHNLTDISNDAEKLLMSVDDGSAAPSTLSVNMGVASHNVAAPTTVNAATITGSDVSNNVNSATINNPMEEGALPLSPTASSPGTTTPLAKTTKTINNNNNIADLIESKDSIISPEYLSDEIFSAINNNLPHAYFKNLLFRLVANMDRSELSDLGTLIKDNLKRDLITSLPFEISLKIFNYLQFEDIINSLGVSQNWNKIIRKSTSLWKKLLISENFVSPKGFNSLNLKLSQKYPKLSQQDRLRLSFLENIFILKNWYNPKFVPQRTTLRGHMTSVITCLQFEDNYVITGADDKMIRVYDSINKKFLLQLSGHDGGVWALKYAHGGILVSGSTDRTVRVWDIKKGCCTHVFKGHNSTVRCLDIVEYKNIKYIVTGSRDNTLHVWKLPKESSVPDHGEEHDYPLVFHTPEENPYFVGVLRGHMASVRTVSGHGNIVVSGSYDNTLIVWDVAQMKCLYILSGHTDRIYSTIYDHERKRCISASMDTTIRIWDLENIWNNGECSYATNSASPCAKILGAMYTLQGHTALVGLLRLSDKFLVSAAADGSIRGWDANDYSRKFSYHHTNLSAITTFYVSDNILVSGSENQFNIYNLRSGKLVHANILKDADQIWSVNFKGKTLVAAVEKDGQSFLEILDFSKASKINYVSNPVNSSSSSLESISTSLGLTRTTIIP
Sequence of Skp1-Cdc4 complex (P07834 whole entry): as above
Sequence of Skp1-Cdc4 complex (P52286 whole entry partner): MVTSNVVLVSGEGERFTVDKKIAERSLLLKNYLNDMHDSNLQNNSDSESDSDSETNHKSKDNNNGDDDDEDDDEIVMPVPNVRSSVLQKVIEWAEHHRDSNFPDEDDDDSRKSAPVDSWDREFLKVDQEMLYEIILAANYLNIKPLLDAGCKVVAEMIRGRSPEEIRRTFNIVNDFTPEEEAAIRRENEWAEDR
Sequence of Cdc4-Skp1 (Saccharomyces cerevisiae) (P07834 whole entry, chain 1 of 2): as the sequence (P07834 whole entry) above
Sequence of Cdc4-Skp1 (Saccharomyces cerevisiae) (P52286 2-194, chain 2 of 2, further chain): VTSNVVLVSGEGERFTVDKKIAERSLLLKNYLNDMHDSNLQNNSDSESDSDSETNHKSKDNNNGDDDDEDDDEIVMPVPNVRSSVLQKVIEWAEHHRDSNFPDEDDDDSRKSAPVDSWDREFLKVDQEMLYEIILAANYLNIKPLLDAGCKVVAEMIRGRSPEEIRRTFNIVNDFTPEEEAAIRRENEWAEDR
Sequence of Sic1 (P38634 whole entry): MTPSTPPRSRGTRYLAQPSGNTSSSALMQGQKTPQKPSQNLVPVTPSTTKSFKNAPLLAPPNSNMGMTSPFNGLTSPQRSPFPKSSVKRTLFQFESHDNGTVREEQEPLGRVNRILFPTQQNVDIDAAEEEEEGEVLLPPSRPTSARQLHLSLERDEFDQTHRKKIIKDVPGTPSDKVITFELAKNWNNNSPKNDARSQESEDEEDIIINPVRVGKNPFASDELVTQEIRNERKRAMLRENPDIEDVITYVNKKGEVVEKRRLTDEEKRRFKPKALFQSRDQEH
Sequence of pSic1 (P38634 whole entry): as above
Sequence of pSic1 1-90 (P38634 1-90): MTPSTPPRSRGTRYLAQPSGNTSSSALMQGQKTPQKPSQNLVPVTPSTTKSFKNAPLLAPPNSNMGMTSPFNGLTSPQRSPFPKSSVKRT
Sequence of Ash1 pT286 peptide (P34233 whole entry): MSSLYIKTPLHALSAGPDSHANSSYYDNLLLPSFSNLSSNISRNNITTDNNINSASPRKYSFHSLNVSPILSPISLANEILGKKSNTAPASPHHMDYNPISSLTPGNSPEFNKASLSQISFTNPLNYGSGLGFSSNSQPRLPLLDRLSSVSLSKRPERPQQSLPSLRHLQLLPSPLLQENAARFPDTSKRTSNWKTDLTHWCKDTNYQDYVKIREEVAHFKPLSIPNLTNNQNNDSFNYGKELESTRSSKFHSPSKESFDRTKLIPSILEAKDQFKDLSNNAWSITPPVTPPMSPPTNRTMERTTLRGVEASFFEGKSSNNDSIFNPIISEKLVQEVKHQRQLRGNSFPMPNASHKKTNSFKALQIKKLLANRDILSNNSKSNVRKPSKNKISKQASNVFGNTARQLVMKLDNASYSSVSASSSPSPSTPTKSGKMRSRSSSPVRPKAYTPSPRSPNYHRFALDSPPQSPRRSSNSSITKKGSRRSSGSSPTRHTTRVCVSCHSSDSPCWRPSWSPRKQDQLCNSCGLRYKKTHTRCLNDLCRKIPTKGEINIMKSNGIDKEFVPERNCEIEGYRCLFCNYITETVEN
Sequence of Ash1 pT290 peptide (P34233 whole entry): as above
Sequence of Ash1 pS294 peptide (P34233 whole entry): as above

Regarding `CC[C@H](C)[C@H](NC(=O)[C@H](CO)NC(=O)[C@H](Cc1c[nH]c2ccccc12)NC(=O)[C@H](C)N)C(=O)N[C@H](C(=O)N1CCC[C@H]1C(=O)N1CCC[C@H]1C(=O)N[C@H](C(=O)N[C@H](C(=O)N1CCC[C@H]1C(=O)N1CCC[C@H]1C(=O)N[C@@H](CCSC)C(=O)N[C@@H](COP(=O)(O)O)C(=O)N1CCC[C@H]1C(=O)N1CCC[C@H]1C(=O)N[C@H](C(=O)N[C@@H](CC(N)=O)C(=O)N[C@@H](CCCNC(=N)N)C(=O)O)[C@@H](C)O)[C@@H](C)OP(=O)(O)O)C(C)C)[C@@H](C)O` [AWSITPPVpTPPMpSPPTNR] (H-AWSITPPV[pT]PPM[pS]PPTNR-OH), at Skp1-Cdc4 complex, the equilibrium dissociation constant (Kd) (in general, the equilibrium constant for the complex coming apart) is 0.082 µM.
Take `CC[C@H](C)[C@H](NC(=O)[C@H](CO)NC(=O)[C@H](Cc1c[nH]c2ccccc12)NC(=O)[C@H](C)N)C(=O)N[C@H](C(=O)N1CCC[C@H]1C(=O)N1CCC[C@H]1C(=O)N[C@H](C(=O)N[C@H](C(=O)N1CCC[C@H]1C(=O)N1CCC[C@H]1C(=O)N[C@@H](CCSC)C(=O)N[C@@H](CO)C(=O)N1CCC[C@H]1C(=O)N1CCC[C@H]1C(=O)N[C@H](C(=O)N[C@@H](CC(N)=O)C(=O)N[C@@H](CCCNC(=N)N)C(=O)O)[C@@H](C)O)[C@@H](C)OP(=O)(O)O)C(C)C)[C@@H](C)OP(=O)(O)O` [AWSIpTPPVpTPPMSPPTNR] (H-AWSI[pT]PPV[pT]PPMSPPTNR-OH): the equilibrium dissociation constant (Kd) on Skp1-Cdc4 complex amounted to 0.069 µM.
With `CC[C@H](C)[C@H](NC(=O)[C@H](CO)NC(=O)[C@H](Cc1c[nH]c2ccccc12)NC(=O)[C@H](C)N)C(=O)N[C@H](C(=O)N1CCC[C@H]1C(=O)N1CCC[C@H]1C(=O)N[C@H](C(=O)N[C@H](C(=O)N1CCC[C@H]1C(=O)N1CCC[C@H]1C(=O)N[C@@H](CCSC)C(=O)N[C@@H](COP(=O)(O)O)C(=O)N1CCC[C@H]1C(=O)N1CCC[C@H]1C(=O)N[C@H](C(=O)N[C@@H](CC(N)=O)C(=O)N[C@@H](CCCNC(=N)N)C(=O)O)[C@@H](C)O)[C@@H](C)OP(=O)(O)O)C(C)C)[C@@H](C)OP(=O)(O)O` [AWSIpTPPVpTPPMpSPPTNR] (H-AWSI[pT]PPV[pT]PPM[pS]PPTNR-OH), the dissociation constant Kd at Skp1-Cdc4 complex was 0.046 µM.
With “Ash1 pS294 peptide (from UniProt P34233)”, the Kd in test [1] was 6500 nM.
Turning to “Ash1 pSer294 phosphopeptide 283-299 (from UniProt P34233)”, in test [2], the dissociation constant (Kd) was 6500 nM.
On to “Ash1 pT286 peptide (from UniProt P34233)”, for which the Kd in test [3] was 900 nM.
Take “Ash1 pT290 peptide (from UniProt P34233)”: the dissociation constant (Kd) in test [4] was 4100 nM.
Take “Ash1 pThr286 phosphopeptide 283-299 (from UniProt P34233)”: in [5], the Kd is 900 nM.
Turning to “Ash1 pThr290 phosphopeptide 283-299 (from UniProt P34233)”, the dissociation constant Kd in test [6] is 4100 nM.
For “Ash1 triphosphorylated peptide 283-299 (from UniProt P34233)”, the Kd in test [7] was 70 nM.
For Sic1 (from UniProt P38634), the equilibrium dissociation constant (Kd) in [8] is 1000 nM.
As for pSic1 1-90 (from UniProt P38634), the Kd in [9] is 600 nM.
For the molecule pSic1 (from UniProt P38634), in [9], the dissociation constant Kd is 600 nM.
On to “recombinant Skp1-Cdc4 complex (from UniProt P07834 1-779; P52286 1-194)”, for which the results for the Kd in test [10], in test [11] and in test [12] were 46 nM, 69 nM and 82 nM, respectively.
In test [13], GMTSPFNGLTSPQR[pS]PFPKS [Sic1^20pS80 phosphopeptide] returned a Ka of 110000 M⁻¹ and a Kd of 9130 nM. In addition, in the test with R664Q Cdc4^WD40, the Ka came to 104000 M⁻¹ and the dissociation constant Kd is 9580 nM.
For GMT[pS]PFNGLTSPQR[pS]PFPKS [Sic1^20pS69/pS80 phosphopeptide] the same measures were 142000 M⁻¹, 7060 nM, 267000 M⁻¹ and 3740 nM.
For GMT[pS]PFNGLTSPQRSPFPKS [Sic1^20pS69 phosphopeptide] the same measures were 97600 M⁻¹, 10300 nM, 51400 M⁻¹ and 19500 nM.
